Laboratory results as given in patent publication US20230109780A1 (XIYUAN ANJIAN MEDICINE SHANGHAI, published 2023).
Changes are numbered by the printed parent chain.

T1: human NT-3 (human, UniProt P20783 139-257)
T1 construct: Bought protein; also called Neurotrophic factor-3
T1 sequence (looked up): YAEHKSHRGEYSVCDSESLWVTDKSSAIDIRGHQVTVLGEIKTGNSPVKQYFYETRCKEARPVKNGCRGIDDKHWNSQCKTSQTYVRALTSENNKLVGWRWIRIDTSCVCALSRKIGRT

T2: human NT-4 (human, UniProt P34130 81-210)
T2 construct: Bought protein; also called Neurotrophic factor-4
T2 sequence (looked up): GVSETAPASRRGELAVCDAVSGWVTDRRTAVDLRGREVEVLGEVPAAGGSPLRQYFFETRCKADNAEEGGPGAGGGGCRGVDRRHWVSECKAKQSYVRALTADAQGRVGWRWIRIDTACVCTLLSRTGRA

T3: human BDNF (human, UniProt P23560 129-247)
T3 construct: Bought protein; also called Brain-Derived Neurotrophic Factor
T3 sequence (looked up): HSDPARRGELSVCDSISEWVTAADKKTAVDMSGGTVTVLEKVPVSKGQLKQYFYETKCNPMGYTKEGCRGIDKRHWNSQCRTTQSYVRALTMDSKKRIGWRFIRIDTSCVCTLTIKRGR

B1: murine anti-human NGF monoclonal antibody 43E5 (antibody, V domains shown)
VH: QVQLQQSGAELVRPGASVTLSCKASGYTFTDYEMHWVRQTPVHGLEWIGAIDPETGGTAYNQKFKGKATLTADKSSSTAYMELRSLTSEDSAVYYCRRGANLNHYGNDEGSYWGQGTLVTVSA
VL: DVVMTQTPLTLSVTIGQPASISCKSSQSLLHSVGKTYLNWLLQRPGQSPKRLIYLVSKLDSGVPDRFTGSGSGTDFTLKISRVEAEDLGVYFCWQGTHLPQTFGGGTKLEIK
notes: Murine monoclonal antibody purified from hybridoma medium by protein G; also called anti-NGF antibody 43E5
B2: murine anti-human NGF monoclonal antibody 137H8 (antibody, V domains shown)
VH: QVQLKESGPGLVAPSQSLSITCTVSGFSLTGYAVNWVRQPPGKGLEWLGMIWFDGSTDYNSALKSRLSISKDNSKSQVFLKMNSLQTDDTARYYCARDYYGSSWYFDVWGAGTTVTVSS
VL: DIQMTQTTSSLSASLGDRVTISCRASQDISYYLNWYQQKPDGTVKLLIYYTSRLHSGVPSRFSGSGSGTDYSLTISNLEQEDIATYFCQQGNTLPRTFGGGTKLDIK
notes: Murine monoclonal antibody purified from hybridoma medium by protein G; also called anti-NGF antibody 137H8
B3: murine anti-human NGF monoclonal antibody 138E12 (antibody, V domains shown)
VH: QVQLKESGPGLVAPSQSLSITCTVSGFSLTGYGVNWVRQPPGKGLEWLGMIWFDGSTDYNSALKSRLSISKDNSKSQVFLKMNSLQTDDTARYYCAREGYYYGTTYYFDYWGQGTTLTVSS
VL: B2 VL with Y31N, D105E
notes: Murine monoclonal antibody purified from hybridoma medium by protein G; also called anti-NGF antibody 138E12
B4: human-mouse chimeric antibody 43E5-chi (antibody, V domains shown)
VH: B1 VH
VL: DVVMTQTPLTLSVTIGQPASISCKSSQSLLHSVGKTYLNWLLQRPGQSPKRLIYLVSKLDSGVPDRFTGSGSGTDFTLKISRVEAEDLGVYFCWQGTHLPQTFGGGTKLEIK
notes: the constant regions are not specified
B5: humanized anti-NGF antibody 43E5-02 (antibody, V domains shown)
VH: QVQLVQSGAEVKKPGASVKVSCKASGYTFTDYEMHWVRQAPGQGLEWIGAIDPETGGTAYNQKFKGRATLTADKSISTAYMELSRLRSDDTAVYYCRRGANLNHYGNDEGSYWGQGTLVTVSS
VL: DVVMTQSPLSLPVTLGQPASISCKSSQSLLHSVGKTYLNWLQQRPGQSPRRLIYLVSKLDSGVPDRFSGSGSGTDFTLKISRVEAEDVGVYFCWQGTHLPQTFGGGTKVEIK
notes: Humanized antibody expressed in CHO cells
B6: humanized anti-NGF antibody 43E5-05 (antibody, V domains shown)
VH: B5 VH with A16S, I48M, A68V, L70I, I76T, R85S, D89E
VL: B5 VL
notes: as for B5
B7: humanized anti-NGF antibody 43E5-01 (antibody, V domains shown)
VH: B5 VH with I48M, A68V, L70M
VL: B5 VL
notes: as for B5
B8: humanized anti-NGF antibody 43E5-06 (antibody, V domains shown)
VH: B5 VH with A16S, I76T, R85S, D89E
VL: B5 VL
notes: as for B5

target: T4, recombinant human NGF protein (human, UniProt P01138 122-241); assay: cell-based or functional assay
T4 sequence (P01138 122-241 limits assumed): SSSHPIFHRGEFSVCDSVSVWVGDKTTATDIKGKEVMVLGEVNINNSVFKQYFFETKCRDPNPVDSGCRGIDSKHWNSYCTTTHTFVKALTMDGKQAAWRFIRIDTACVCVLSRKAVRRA

Binder | IC50, inhibition of NGF-induced proliferation of TF-1 cell [nM]
B1 | 0.083
B2 | 0.123
B3 | 0.077

target: T1, human NT-3; assay: ELISA, plate coated with human NT-3 (50 ng per well), OD450
Experimental: (§1) The binding capacity of anti-NGF antibodies was investigated by using human NGF as an antigen (Beijing Yiqiao Shenzhou Technology Co., Ltd., 11050-HNAC). Each well of a 96-well microtiter plate was coated with 50 ng of human NGF, after washing and blocking, and then added with serially diluted antibodies, and incubated at room temperature for 1 hour. After washing three times, HRP-conjugated goat anti-mouse antibody (Biolegend, 405306) was added and incubated at room temperature for 1 hour. After washing three times, tetramethylbenzidine (TMB, Biolegend, 421101) was added for color development. 1M HC1 was used to terminate the color development, and the absorbance values were read at 450 nm with a microplate reader.
(§2) Each well of a 96-well microtiter plate was coated with 50 ng of human NGF (Beijing Yiqiao Shenzhou Technology Co., Ltd., 11050-HNAC), human BDNF (Beijing Yiqiao Shenzhou Technology Co., Ltd., 50240-MNAS), human NT-3 (Beijing Yiqiao Shenzhou Technology Co., Ltd., 10286-HNAE), or human NT-4 (Alomone, N-270). The bindings of the murine anti-NGF antibodies to human NGF and three homo-family proteins were detected according to the method described in Example 2.

Binder | binding result
B1 | no binding (tested: 66.67 nM)
B3 | no binding (tested: 66.67 nM)

target: T4, recombinant human NGF protein; assay: cell-based or functional assay; remark: another data set of the same source

Binder | IC50, inhibition of NGF-induced proliferation of TrkA/Ba/F3 cells [nM]
B1 | 0.096
B2 | 0.083
B3 | 0.098

target: T4, recombinant human NGF protein; assay: blocking ELISA, human NGF coated, antibody first, then TrkA-Fc
Experimental: If using the coated ligand NGF method for detection, each well of a 96-well microtiter plate was coated with 50 ng of human NGF and washed three times. […] 100 μL of 1 μg/mL TrkA fused to human Fc was added to each well, incubated for 1 hour at room temperature, and washed three times. HRP-conjugated donkey anti-human IgG antibody (Biolegend, 410902) was added and reacted for 1-hour at room temperature. After washing, add TMB to develop color, and read after the termination of development.

Binder | IC50 [nM]
B1 | 0.967
B2 | 0.791
B3 | 0.865

target: T2, human NT-4; assay: ELISA, plate coated with human NT-4 (50 ng per well), OD450
Experimental: as §1, §2

Binder | binding result
B1 | no binding (tested: 66.67 nM)
B3 | no binding (tested: 66.67 nM)

target: T3, human BDNF; assay: ELISA, plate coated with human BDNF (50 ng per well), OD450

Binder | binding result
B4 | no binding (tested: 66.67 nM)
B5 | no binding (tested: 66.67 nM)
B6 | no binding (tested: 66.67 nM)
B7 | no binding (tested: 66.67 nM)
B8 | no binding (tested: 66.67 nM)

target: T3, human BDNF; assay: as above; remark: another data set of the same source
Experimental: as §1, §2

Binder | binding result
B1 | no binding (tested: 66.67 nM)
B3 | no binding (tested: 66.67 nM)

target: T2, human NT-4; assay: ELISA, plate coated with human NT-4 (50 ng per well), OD450; remark: another data set of the same source

Binder | binding result
B4 | no binding (tested: 66.67 nM)
B5 | no binding (tested: 66.67 nM)
B6 | no binding (tested: 66.67 nM)
B7 | no binding (tested: 66.67 nM)
B8 | no binding (tested: 66.67 nM)

target: T1, human NT-3; assay: ELISA, plate coated with human NT-3 (50 ng per well), OD450; remark: another data set of the same source

Binder | binding result
B4 | no binding (tested: 66.67 nM)
B5 | no binding (tested: 66.67 nM)
B6 | no binding (tested: 66.67 nM)
B7 | no binding (tested: 66.67 nM)
B8 | no binding (tested: 66.67 nM)

target: T4, recombinant human NGF protein; assay: blocking ELISA, TrkA-Fc coated, antibody premixed with biotin-labeled human NGF
Experimental: If the method of coated receptor TrkA is used for detection, 50 ng of NGF receptor TrkA protein (fused to human Fc) was coated in each well of a 96-well microtiter plate, washed three times, and then blocked with 3% BSA for 1 hour. […] 100 μl was taken and mixed with an equal volume of 1 μg/mL biotin-labeled human NGF, incubated at room temperature for 0.5 hours, and then added to an ELISA plate which has been washed with blocking solution. Incubated for 1 hour at room temperature and washed three times. Streptavidin-labeled HRP (Biolegend, 405210) was added, and incubated for 0.5 h and then washed three times. The microtiter plate was added with TMB, and read after the color development was terminated.

Binder | IC50 [nM]
B1 | 0.767
B2 | 0.738
B3 | 0.677

target: T4, recombinant human NGF protein; assay: ELISA, human NGF coated
Experimental: The affinity and specificity of humanized antibody were investigated by using human NGF as an antigen (Beijing Yiqiao Shenzhou Technology Co., Ltd., 11050-HNAC). NGF was diluted with […] coating solution (PBS), and each well of 96-well microtiter plate was coated with 50 ng, after washing and blocking, and then added with serially diluted antibodies, and incubated at room temperature for 1 hour. After washing three times, HRP-conjugated donkey anti-human IgG antibody (Biolegend) was added and reacted at room temperature for 1 hour. After washing three times, tetramethylbenzidine (TMB, Biolegend) was added for color development. 1M HC1 was […] used to terminate the color development, and the absorbance values were read at 450 nm with a microplate reader.

Binder | EC50 [nM]
B4 | 0.104
B5 | 0.222
B6 | 0.214
B7 | 0.229
B8 | 0.192

target: T4, recombinant human NGF protein; assay: cell-based or functional assay; remark: another data set of the same source

Binder | IC50 (row head prints EC50), inhibition of reporter gene expression in TrkA/NFAT-bla/CHO cells [nM]
B1 | 0.0532
B2 | 0.0859
B3 | 0.0442

target: T4, recombinant human NGF protein; assay: BLI (ForteBio Octet Red96), biotin-NGF on SA sensor, antibody in solution
From the text: The affinities of the antibodies were detected with Biomolecular Interaction Detection Platform (ForteBio Octet Red96 (PALL)). Biotin-labeled human NGF was immobilized by using SA (Streptavidin) Biosensor (Fortebio, 18-5021), and then conjugated with gradient concentrations of anti-NGF antibodies.

Binder | Kd [nM] | koff [s⁻¹] | kon [M⁻¹ s⁻¹]
B1 | < 0.001 | < 1e-07 | 373000
B2 | 0.381 | 4.91e-05 | 129000
B3 | < 0.001 | < 1e-07 | 634000

target: T4, recombinant human NGF protein; assay: cell-based or functional assay; remark: another data set of the same source

Binder | IC50, inhibition of NGF-induced proliferation of TF-1 cell [nM]
B4 | 0.255
B5 | 0.534
B6 | 0.701
B7 | 0.582
B8 | 0.568

target: T4, recombinant human NGF protein; assay: ELISA, human NGF coated; remark: another data set of the same source
Experimental: as §1

Binder | EC50 [nM]
B1 | 0.082
B2 | 0.112
B3 | 0.1
